{
  "source": "patent US20210292730",
  "proteins": {"B1": {"name": "plant produced recombinant human Furin (truncated form, pEAQ-Furin (truncated)-His6-KDEL, produced in N. benthamiana) (protein)", "chain": "QGQKVFTNTWAVRIPGGPAVANSVARKHGFLNLGQIFGDYYHFWHRGVTKRSLSPHRPRHSRLQREPQVQWLEQQVAKRRTKRDVYQEPTDPKFPQQWYLSGVTQRDLNVKAAWAQGYTGHGIVVSILDDGIEKNHPDLAGNYDPGASFDVNDQDPDPQPRYTQMNDNRHGTRCAGEVAAVANNGVCGVGVAYNARIGGVRMLDGEVTDAVEARSLGLNPNHIHIYSASWGPEDDGKTVDGPARLAEEAFFRGVSQGRGGLGSIFVWASGNGGREHDSCNCDGYTNSIYTLSISSATQFGNVPWYSEACSSTLATTYSSGNQNEKQIVTTDLRQKCTESHTGTSASAPLAAGIIALTLEANKNLTWRDMQHLVVQTSKPAHLNANDWATNGVGRKVSHSYGYGLLDAGAMVALAQNWTTVAPQRKCIIDILTEPKDIGKRLEVRKTVTACLGEPNHITRLEHAQARLTLSYNRRGDLAIHLVSPMGTRSTLLAARPHDYSADGFNDWAFMTTHSWDEDPSGEWVLEIENTSEANNYGTLTKFTLVLYGTAPEGLPVPPESSGCKTLTSSQAHHHHHHKDEL"}},
  "biological_target": "T1, Recombinant murine APRIL (Sigma SRP3189-20UG), Q9D777",
  "T1 chain": "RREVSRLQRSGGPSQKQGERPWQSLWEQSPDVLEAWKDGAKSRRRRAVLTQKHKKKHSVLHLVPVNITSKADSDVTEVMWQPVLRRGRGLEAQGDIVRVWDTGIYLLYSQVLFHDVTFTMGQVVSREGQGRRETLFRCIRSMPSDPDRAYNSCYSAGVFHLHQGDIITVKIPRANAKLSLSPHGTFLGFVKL",
  "data": [
    {"protein": "B1", "values": [
      {"measurement": "in vitro cleavage of 5 µg APRIL by 25 ng Furin, 25° C., 1 h, SDS-PAGE", "result": "recombinant APRIL protein is cleaved by both plant produced human Furin (25ng) or commercial Furin (25 ng) and 16.8 kDa fragment was generated"}
    ]}
  ]
}
